For assay [1], the target named is T1, neuronal nitric oxide synthase (nNOS) (rat, UniProt P29476 1-1429, limits assumed).
T1 construct: Endogenous rat protein
Put plainly: GST fusion protein binding assay with rat hippocampus membrane proteins, immunoblot. On the procedure:
We utilized the yeast two-hybrid system to investigate the effects of halothane on protein interactions within the NMDA receptor signaling complex. The PDZ domain of nNOS or the C-terminus of NMDA receptor subunit 2B (NR2B) was fused in frame with the GAL4 DNA-binding domain in a yeast vector, pGBT9. […] Both yeast vectors were co-transformed into the Y190 yeast strain, which was then grown in the absence or presence of halothane at clinically relevant concentrations. Protein-protein interactions were confirmed by both yeast growth on -Leu/-Trp/-His (-LTH) medium and lacz expression. To confirm the yeast two-hybrid results, the GST fusion protein binding assay was performed. […] After extensive washing, the bound proteins were eluted by boiling in 1 X SDS-PAGE sample buffer and detected by immunoblotting.

Assay [2] deals with T2, postsynaptic density-95 (PSD-95)/synapse-associated protein-90 (SAP90) (rat, UniProt P31016 1-724).
T2 construct: Endogenous protein from rat spinal cord PSD fraction, pulled down by co-immunoprecipitation; also called PSD-95/SAP90
T2 sequence (P31016 whole entry): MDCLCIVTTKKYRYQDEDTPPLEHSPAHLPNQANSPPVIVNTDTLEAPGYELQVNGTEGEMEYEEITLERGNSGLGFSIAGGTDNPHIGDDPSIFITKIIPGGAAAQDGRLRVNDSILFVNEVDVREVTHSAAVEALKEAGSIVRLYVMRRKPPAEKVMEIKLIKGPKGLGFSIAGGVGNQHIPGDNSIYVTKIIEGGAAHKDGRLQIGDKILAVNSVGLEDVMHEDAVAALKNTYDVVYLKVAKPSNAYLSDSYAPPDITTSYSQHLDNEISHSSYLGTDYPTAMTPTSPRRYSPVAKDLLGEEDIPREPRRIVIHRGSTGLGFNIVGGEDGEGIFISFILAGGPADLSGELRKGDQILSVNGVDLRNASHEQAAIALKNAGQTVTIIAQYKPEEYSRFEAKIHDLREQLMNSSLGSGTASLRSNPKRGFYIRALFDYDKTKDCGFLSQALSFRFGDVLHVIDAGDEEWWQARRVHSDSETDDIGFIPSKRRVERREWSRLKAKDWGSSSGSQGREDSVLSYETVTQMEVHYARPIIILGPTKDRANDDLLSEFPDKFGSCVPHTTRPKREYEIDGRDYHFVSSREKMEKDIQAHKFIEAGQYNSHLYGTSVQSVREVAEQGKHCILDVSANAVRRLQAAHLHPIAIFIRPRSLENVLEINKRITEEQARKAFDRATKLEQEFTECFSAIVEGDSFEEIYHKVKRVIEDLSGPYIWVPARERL
Put plainly: co-immunoprecipitation from rat spinal cord PSD fraction, immunoblot.

Three molecules from US20020045590A1 (Johns Hopkins, published 2002) can be followed below.

T1 sequence (P29476 whole entry): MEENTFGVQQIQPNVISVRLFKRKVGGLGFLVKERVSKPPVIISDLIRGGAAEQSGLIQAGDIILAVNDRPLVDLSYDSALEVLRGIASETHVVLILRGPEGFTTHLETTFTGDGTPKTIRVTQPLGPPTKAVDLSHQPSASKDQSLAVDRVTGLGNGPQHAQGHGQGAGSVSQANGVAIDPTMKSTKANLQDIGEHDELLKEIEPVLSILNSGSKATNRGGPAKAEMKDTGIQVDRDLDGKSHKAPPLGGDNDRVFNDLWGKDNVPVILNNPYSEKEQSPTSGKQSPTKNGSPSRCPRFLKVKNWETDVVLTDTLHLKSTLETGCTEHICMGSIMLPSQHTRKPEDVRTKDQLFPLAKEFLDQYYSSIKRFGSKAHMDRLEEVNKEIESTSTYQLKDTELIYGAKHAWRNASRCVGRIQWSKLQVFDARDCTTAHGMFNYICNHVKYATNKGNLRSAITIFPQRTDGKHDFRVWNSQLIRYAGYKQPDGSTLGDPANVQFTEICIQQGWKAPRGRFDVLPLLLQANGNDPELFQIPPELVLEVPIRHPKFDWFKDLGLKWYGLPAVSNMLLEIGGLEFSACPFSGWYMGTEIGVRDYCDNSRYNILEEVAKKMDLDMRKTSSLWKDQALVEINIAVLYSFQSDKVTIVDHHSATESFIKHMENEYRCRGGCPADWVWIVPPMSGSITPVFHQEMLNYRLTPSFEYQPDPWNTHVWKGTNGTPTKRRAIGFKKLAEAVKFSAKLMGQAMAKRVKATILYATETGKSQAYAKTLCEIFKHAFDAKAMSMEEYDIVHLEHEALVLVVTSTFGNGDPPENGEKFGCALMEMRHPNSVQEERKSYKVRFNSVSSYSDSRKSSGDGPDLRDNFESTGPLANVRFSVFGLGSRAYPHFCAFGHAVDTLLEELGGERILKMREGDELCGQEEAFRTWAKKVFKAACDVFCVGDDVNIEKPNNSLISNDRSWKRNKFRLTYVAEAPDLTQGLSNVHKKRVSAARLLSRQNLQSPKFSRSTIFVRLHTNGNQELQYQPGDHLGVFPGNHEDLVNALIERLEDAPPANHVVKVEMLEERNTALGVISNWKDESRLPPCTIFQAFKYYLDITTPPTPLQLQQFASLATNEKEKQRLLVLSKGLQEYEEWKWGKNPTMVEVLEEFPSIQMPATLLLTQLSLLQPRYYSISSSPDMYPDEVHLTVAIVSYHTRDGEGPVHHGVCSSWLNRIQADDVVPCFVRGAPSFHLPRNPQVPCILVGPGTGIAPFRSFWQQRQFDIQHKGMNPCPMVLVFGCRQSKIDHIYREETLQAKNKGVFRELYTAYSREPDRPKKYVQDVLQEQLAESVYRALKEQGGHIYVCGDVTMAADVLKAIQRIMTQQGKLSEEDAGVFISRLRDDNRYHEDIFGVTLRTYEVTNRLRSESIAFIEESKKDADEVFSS

B1: GST-fusion protein consisting of the second PDZ domain of PSD-95 (other, UniProt P31016 160-246, looked up)
chain: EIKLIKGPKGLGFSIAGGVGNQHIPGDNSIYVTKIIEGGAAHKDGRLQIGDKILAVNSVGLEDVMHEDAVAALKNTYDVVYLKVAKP
notes: domain: second PDZ domain; Expressed in bacterial BL21 cells, purified on glutathione-coupled agarose; also called GST-PSD-95; GST-fusion PSD-95; not shown: glutathione S-transferase (GST) tag
For the molecule B1, the binding result in assay [1] is “binds”.

B2: GST-fusion protein consisting of the second PDZ domain of PSD-93 (other, UniProt Q63622 193-279, looked up)
chain: EIKLFKGPKGLGFSIAGGVGNQHIPGDNSIYVTKIIDGGAAQKDGRLQVGDRLLMVNNYSLEEVTHEEAVAILKNTSDVVYLKVGKP
notes: domain: second PDZ domain; Expressed in bacterial BL21 cells, purified on glutathione-coupled agarose; also called GST-PSD-93; GST-fusion PSD-93; not shown: glutathione S-transferase (GST) tag
Take B2: in assay [1], the binding result was “binds”.

B3: endothelial NOS (eNOS) (enzyme, rat, UniProt Q62600 2-1202, looked up)
chain: GNLKSVGQEPGPPCGLGLGLGLGLCGKQGPASPAPEPSQAPVPPSPTRPAPDHSPPLTRPPDGPKFPRVKNWEVGSITYDTLSAQAQQDGPCTPRRCLGSLVFPRKLQSRPTQGPSPTEQLLGQARDFINQYYNSIKRSGSQAHEQRLQEVEAEVVATGTYQLRESELVFGAKQAWRNAPRCVGRIQWGKLQVFDARDCRTAQEMFTYICNHIKYATNRGNLRSAITVFPQRYAGRGDFRIWNSQLVRYAGYRQQDGSVRGDPANVEITELCIQHGWTPGNGRFDVLPLLLQAPDEPPELFTLPPELVLEVPLEHPTLEWFAALGLRWYALPAVSNMLLEIGGLEFPAAPFSGWYMSSEIGMRDLCDPHRYNILEDVAVCMDLDTRTTSSLWKDKAAVEINVAVLYSYQLAKVTIVDHHAATASFMKHLENEQKARGGCPADWAWIVPPISGSLTPVFHQEMVNYFLSPAFRYQPDPWKGSAAKGTGITRKKTFKEVANAVKISASLMGTVMAKRVKATILYGSETGRAQSYAQQLGRLFRKAFDPRVLCMDEYDVVSLEHEALVLVVTSTFGNGDPPENGESFAAALMEMSGPYNSSPRPEQHKSYKIRFNSVSCSDPLVSSWRRKRKESSNTDSAGALGTLRFCVFGLGSRAYPHFCAFARAVDTRLEELGGERLLQLGQGDELCGQEEAFRGWAQAAFQAACETFCVGEDAKAAARDIFSPKRSWKRQRYRLSTQAESLQLLPRLTHVHRRKMFQATILSVENLQSSKSTRATILVRLDTGSQEGLQYQPGDHIGVCPPNRPGLVEALLSRVEDPPPSTEPVAVEQLEKGSPGGPPPGWVRDPRLPPCTLRQALTYFLDITSPPSPRLLRLLSTLAEESSEQQELEALSQDPRRYEEWKWFRCPTLLEVLEQFPSVALPAPLILTQLPLLQPRYYSVSSAPSAHPGEIHLTVAVLAYRTQDGLGPLHYGVCSTWMSQLKAGDPVPCFIRGAPSFRLPPDPNLPCILVGPGTGIAPFRGFWQDRLHDIEIKGLQPAPMTLVFGCRCSQLDHLYRDEVLDAQQRGVFGQVLTAFSRDPGSPKTYVQDLLRTELAAEVHRVLCLEQGHMFVCGDVTMATSVLQTVQRILATEGSMELDEAGDVIGVLRDQQRYHEDIFGLTLRTQEVTSRIRTQSFSLQERQLRGAVPWSFDPPTQETPGS
notes: Endogenous rat protein
Turning to B3, the binding result in assay [2] is reported as “no binding”.
